Results as given in publication PMC11488477, “TDP-43 Amyloid Fibril Formation via Phase Separation-Related and -Unrelated Pathways” (ACS Chemical Neuroscience, 2024).

Target: the molecule itself
Test: thioflavin T fluorescence + negative-stain TEM; protein alone in buffer with ThT, 20 uM (higher at pH 4 and 5), pH 4-7, 0-300 mM NaCl, 1% DMSO, 96-well plate, 30 °C; long-period assays (Figure 5) incubated without shaking; self-assembly into amyloid fibrils

B1: C-terminal domain of TDP-43 (residues 266-414), wild type (domain or fragment, UniProt Q13148 266-414, looked up)
chain: SNRQLERSGRFGGNPGGFGNQGGFGNSRGGGAGLGNNQGSNMGGGMNFGAFSINPAMMAAAQAALQSSWGMMGMLASQQNQSGPSGNNQNQGNMQREPNQAFGSGNNSYSGSNSGAAIGWGSASNAGSGSGFNGGFGSSMDSKSSGWGM
notes: TDP-43, C-terminal domain (intrinsically disordered region), residues 266-414; UniProt entry Q13148; also called TDP-43's IDR; wild-type TDP-43
  binding result: binds
